Values belong to the binder of their own block, whether it stands above or below them.
What was measured:
cryo-EM structure = biological target: the molecule itself; test: cryo-EM structure
[1] = biological target: Arabidopsis thaliana PIN1 (PIN-FORMED 1 auxin transporter) (Arabidopsis thaliana, UniProt Q9C6B8); test: cryo-EM structure

B1: Arabidopsis thaliana PIN1 (PIN-FORMED 1 auxin transporter) (natural protein)
chain: MITAADFYHVMTAMVPLYVAMILAYGSVKWWKIFTPDQCSGINRFVALFAVPLLSFHFIAANNPYAMNLRFLAADSLQKVIVLSLLFLWCKLSRNGSLDWTITLFSLSTLPNTLVMGIPLLKGMYGNFSGDLMVQIVVLQCIIWYTLMLFLFEYRGAKLLISEQFPDTAGSIVSIHVDSDIMSLDGRQPLETEAEIKEDGKLHVTVRRSNASRSDIYSRRSQGLSATPRPSNLTNAEIYSLQSSRNPTPRGSSFNHTDFYSMMASGGGRNSNFGPGEAVFGSKGPTPRPSNYEEDGGPAKPTAAGTAAGAGRFHYQSGGSGGGGGAHYPAPNPGMFSPNTGGGGGTAAKGNAPVVGGKRQDGNGRDLHMFVWSSSASPVSDVFGGGGGNHHADYSTATNDHQKDVKISVPQGNSNDNQYVEREEFSFGNKDDDSKVLATDGGNNISNKTTQAKVMPPTSVMTRLILIMVWRKLIRNPNSYSSLFGITWSLISFKWNIEMPALIAKSISILSDAGLGMAMFSLGLFMALNPRIIACGNRRAAFAAAMRFVVGPAVMLVASYAVGLRGVLLHVAIIQAALPQGIVPFVFAKEYNVHPDILSTAVIFGMLIALPITLLYYILLGL
binding result (cryo-EM structure): binds

binding result [1]: binds
B2: sybody-21 (VHH)
VHH: QVQLVESGGGLVQAGGSLRLSCAASGFPVNISWMEWYRQVPGKEREWVAAIQSTGSYTWYADSVKGRFTISRDNAKNTVYLQMNSLKPEDTAVYYCRVKVGAYYRGQGTQVTVSA

Source: paper doi:10.1101/2022.10.13.512040 (bioRxiv, 2022)
